assay: soluble on expression in E. coli; label from the status in PepcDB or PDB records

**Q.** For “MGSDKIHHHHHHMMDRQFQHAMLPQPTHDELARQNFVQSLKTHIFRNISPGNKVVYEKLAKPKFEQEHQRPPQNRHEIREVMQHESYYRWTSALKRIHQEILWDAVNTSVGRQLPELIERAKDRGGELGTLTLDPNFQIPNYQKAVDIHCMPGGYHSEFTGGDVAAGATYDRGAYLYGLGWLGPLNNDMGLSIVQNYLLPEYPDFRPRKILDMGCSVGNSTLPYVDAYPDAEVHAIDVGAPMLRYGHARAEALGKRVHFWQQNAEHTNFPDESFDLVVSHILLHEIPPSAVRKVMQESYRLLAPGGIMLHLEAPLYRHLDVYTQFIFDWETANNNEPFWSAVRDLDLVTLATEAGFAPDKTFEKFVPNGAWKAKVTNGLFQNGNSGSLNTWFVVAATK”, which “soluble on expression in E. coli” value is on record?
**A.** The value was “not soluble”.

**Q.** With “SASFQRKGLQARILSTEEEEKLKRDQALVSAFKQQKLEKEAQKNWDLFYKRNSTNFFKDRHWTTREFEELRSCREYEGQKLTLLEAGCGVGNCLFPLLEEDLNLFAYACDFSPRAVDYVKQHPLYNAERCKVFQCDLTRDDLLDHVPPESVDAVTLIFVLSAVHPEKMRLVLLNVYKVLKPGRSVLFRDYGLNDHAMLRFKAGSKLGENFYVRQDGTRSYFFTDEFLAQLFVDAGYEEVVNEYVFRETVNKKEGLCVPRVFLQSKFRKPPKDPAPTSDSASL” as the sequence, how does the “soluble on expression in E. coli” value read?
**A.** Its value is “soluble”.

**Q.** Which “soluble on expression in E. coli” value does the source give for “MGSDKIHHHHHHTQKPDITYMPQPPFNPPTYVCYKAPAPIKIDGKLSPGEWDAIPWTSDFVDIEGDKRPAPHFQTRAKMTYDDNGMYFAVLMEEPHVWATITEHDAVIFHDNDFEIFLNPTNDTHNYLEYEVNALGTEWDLFLTRPYRDNPQVLNNWEFTGMKSAVYVDGTLNNPKDTDKSWSVEVFIPWTSVFQMDRGKEKPEIGEQIRVNFSRVEWTTDVKDGKYVKVPIQGEDKIREYNWVWAPTGVINIHMPEYWGYVQISDKIAGEGETPFVKHPSEETKWILRNLYYRQNEFAATFGHYADNINDLKANELCPQEIANQLEIHTTPSMYEISLPAPDGTVWNIRQDGLVWPKKK” here?
**A.** The value was “not soluble”.

**Q.** With “MGSDKIHHHHHHMDYRMCWLEYRGLPADVAGKLKDWFSSVSILEPGSSVLKDEIRRFSERSIGITPRFYSRPLKKEKYIMVGRLESLPIKLDVNLGEEGFMLRTIEWNGSKILLVTGETKKALVYGIFDLMKRIRLGEDIEKMNVLAKPKAKFRMLNHWDNLDGTIERGYAGNSIFFKDNRIIINQRTKDYARLLASIGINGVVINNVNVKKREVYLIDSIYLKKLKKLADIFREYGIKIYLSINFASPVYLGGLDTADPLDERVARWWREKARGIYDYIPDFGGFLVKADSEFNPGPHMFGRTHAEGANMLARALAPFGGVVIWRAFVYNCLQDWRDYKTDRAKAAYDNFKPLDGQFDDNVIIQIKYGPMDFQVREPVNPLFGGMEKTNQILELQITQEYTGQQIHLCFLGTLWKEILEFDTFAKGEGSYVKRIVDGTLFDRENNGFAGVSNVGDSVNWTGHDLAQANLYAFGRLAWNPDEEIERIVEEWIKLTFGDDEKVLENVSYMLMKSHRTYEKYTTPFGLGWMVNPGHHYGPNPEGYEYSKWGTYHRANWEAIGVDRTSRGTGYTLQYHSPWKEIYDDINTCPEDLLLFFHRVRYDHRLKSGKTLLQTMYDLHFEGVEEVEEFIKKWEELKDRVSPDIFERVKERLHMQLEHAKEWRDVINTYFYRRTGIPDEKGRKIYP” as the sequence, how does the “soluble on expression in E. coli” value read?
**A.** The value was “not soluble”.

**Q.** For “MLRISRDLVIDEDDIEIGFVRASGPGGQNVNKVATSAQLRFDTRKLTLPEDATIRLARIAGQRMTKDGVIVIHAQRFRTQERNRQDAIDRLVEILSEALEHHHHHH”, which “soluble on expression in E. coli” value is on record?
**A.** Its value is “not soluble”.

**Q.** For “GMYLKELSMMPGVSGDEGKVRDFIKSKIEGLVDNLYTDVLGNLIALKRGRDSSKKLLVSAHMDEVGFVVSKIEKDGKVSFLPVGGVDPRILPGKVVQVKNLKGVIGYRPIHLQRDEENTPPRFENLRIDFGFSSADEAKKYVSIGDYVSFVSDYIEKNGRAVGKAFDDRAGCSVLIDVLESGVSPAYDTYFVFTVQEETGLRGSAVVVEQLKPTCAIVVETTTAGDNPELEERKWATHLGDGPAITFYHRGYVIPKEIFQTIVDTAKNNDIPFQMKRRTAGGTDAGRYARTAYGVPAGVISTPARYIHSPNSIIDLNDYENTKKLIKVLVEEGKIVEVVS”, which “soluble on expression in E. coli” value is on record?
**A.** Its value is “soluble”.

**Q.** Which “soluble on expression in E. coli” value does the source give for “MGSDKIHHHHHHMLYQLHEFQRSMLHPLTAWAQATAKTFTNPLSPLSLVPGAPRLAAGYELLYRLGKEYEKPAFDIKSVRSNGREIPIVEQTIMEKPFCRLVRFKRYADDPDTIKLLKDEPVVLVAAPLSGHHATLLRDTVRTLLQDHKVYVTDWVDARMVPAEHGPFHLSDYIYYIQEFIRHIGADKLHVISVCQPTVPVLAAISLMASAGEKTPLTMTMMGGPIDARKSPTAVNSLATNKSFEWFENNVIYTVPANYPGHGRRVYPGFLQHAGFVAMNPDRHLSSHYDYYLSLIQGDADDAEAHVRFYDEYNAVLDMAAEYYLDTIREVFQEFRLANGTWTIDGNPVRPQDIKGTALLTVEGELDDISGAGQTSAAHDLCAGIPQTHKHHLSAAKCGHYGIFSGRRWRDEIYPQLRDFIRKYR” here?
**A.** Its value is “not soluble”.

**Q.** Which “soluble on expression in E. coli” value does the source give for “MALDLTAYFDRINYRGATDPTLDVLQDLVTVHSRTIPFENLDPLLGVPVDDLSPQALADKLVLRRRGGYCFEHNGLMGYVLAELGYRVRRFAARVVWKLAPDAPLPPQTHTLLGVTFPGSGGCYLVDVGFGGQTPTSPLRLETGAVQPTTHEPYRLEDRVDGFVLQAMVRDTWQTLYEFTTQTRPQIDLKVASWYASTHPASKFVTGLTAAVITDDARWNLSGRDLAVHRAGGTEKIRLADAAAVVDTLSERFGINVADIGERGALETRIDELLARQPGADAP” here?
**A.** The value was “not soluble”.

**Q.** Which “soluble on expression in E. coli” value does the source give for “MGSDKIHHHHHHMNMEINPSEYKILIVDDVMSNVLLLKVLLTNEKFNIVTASNGNQALDQVKKENPDLILLDVMMPDMSGFEVSQKLKADPEAAHIPIIFLTALNSTADIVKGFQVGGNDFISKPFNKEELIIRVSHQISLVAAKRIIEAKTEELKKTIIGRDKLYSVIAHDLRSPMGSIKMVLNMLILSLPKEKIGEDMYELLTMANQTTEDVFSLLDNLLKWTKSQIGKLKVVYQDIDMVEVVEGVGEIFAMVAGLKNIRLRIESPECQAVHADIDMIKTVIRNLISNAIKFSNEGSEVLIKVEESDGMSVVSVKDSGCGIDEESQKKLLHTDTHFSTFGTNNEEGSGLGLLLCQDFVVKNGGKLWFTSVKDEGSTFYFSIPLKK” here?
**A.** Its value is “not soluble”.

**Q.** With “MHHHHHHSSGVDLGTENLYFQSMLNTSGSGTILIDLSPDDKEFQSVEEEMQSTVREHRDGGHAGGIFNRYNILKIQKVCNKKLWERYTHRRKEVSEENHNHANERMLFHGSPFVNAIIHKGFDERHAYIGGMFGAGIYFAENSSKSNQYVYGIGGGTGCPVHKDRSCYICHRQLLFCRVTLGKSFLQFSAMKMAHSPPGHHSVTGRPSVNGLALAEYVIYRGEQAYPEYLITYQIMRPEG” as the sequence, how does the “soluble on expression in E. coli” value read?
**A.** The value was “soluble”.

**Q.** With “MSLRVADLLQHINLMKTSDSYGFKEEYESFFEGQSASWDVAKKDQNRAKNRYGNIIAYDHSRVILQPVEDDPSSDYINANYIDGYQRPSHYIATQGPVHETVYDFWRMIWQEQSACIVMVTNLVEVGRVKCYKYWPDDTEVYGDFKVTCVEMEPLAEYVVRTFTLERRGYNEIREVKQFHFTGWPDHGVPYHATGLLSFIRRVKLSNPPSAGPIVVHCSAGAGRTGCYIVIDIMLDMAEREGVVDIYNCVKALRSRRINMVQTEEQYIFIHDAILEACLCGETAIPVCEFKAAYFDMIRIDSQTNSSHLKDEFQTLNSVTPRLQAEDCSIACLPRNHDKNRFMDMLPPDRCLPFLITIDGESSNYINAALMDSYRQPAAFIVTQYPLPNTVKDFWRLVYDYGCTSIVMLNEVDLSQGCPQYWPEEGMLRYGPIQVECMSCSMDCDVINRIFRICNLTRPQEGYLMVQQFQYLGWASHREVPGSKRSFLKLILQVEKWQEECEEGEGRTIIHCLNGGGRSGMFCAIGIVVEMVKRQNVVDVFHAVKTLRNSKPNMVEAPEQYRFCYDVALEYLESSEGHHHHHH” as the sequence, how does the “soluble on expression in E. coli” value read?
**A.** Its value is “soluble”.

**Q.** With “MRAVVVGAGLGGLLAGAFLARNGHEIIVLEKSAMIGGRFTNLPYKGFQLSTGALHMIPHGEDGPLAHLLRILGAKVEIVNSNPKGKILWEGKIFHYRESWKFLSVKEKAKALKLLAEIRMNKLPKEEIPADEWIKEKIGENEFLLSVLESFAGWADSVSLSDLTALELAKEIRAALRWGGPGLIRGGCKAVIDELERIIMENKGKILTRKEVVEINIEEKKVYTRDNEEYSFDVAISNVGVRETVKLIGRDYFDRDYLKQVDSIEPSEGIKFNLAVPGEPRIGNTIVFTPGLMINGFNEPSALDKSLAREGYTLIMAHMALKNGNVKKAIEKGWEELLEIFPEGEPLLAQVYRDGNPVNRTRAGLHIEWPLNEVLVVGDGYRPPGGIEVDGIALGVMKALEKLNLGSFSEWYLLEHHHHHH” as the sequence, how does the “soluble on expression in E. coli” value read?
**A.** Its value is “soluble”.

**Q.** For “MLPKPGTYYLPWEVSAGQVPDGSTLRTFGRLCLYDMIQSRVTLMAQHGSDQHQVLVCTKLVEPFHAQVGSLYIVLGELQHQQDRGSVVKARVLTCV”, which “soluble on expression in E. coli” value is on record?
**A.** The value was “not soluble”.

**Q.** With “MVITKIVGHIDDLSHQIKKVDWLEVEWEDLNKRILRKETENGTDIAIKLENSGTLRYGDVLYESDDTLIAIRTKLEKVYVIKPQTMQEMGKMAFEIGNRHTMCIIEDDEILVRYDKTLEKLIDEVGVSYEQSERRFKEPFKYRGHQH” as the sequence, how does the “soluble on expression in E. coli” value read?
**A.** Its value is “soluble”.

**Q.** Which “soluble on expression in E. coli” value does the source give for “MGDICETVEATFHGVAYLLTVSTIEGETLCVEVEQKSDCSRWRGDFTSRYIEDITAKTGNFKKFPVFVKMLLSALKQASDSVFVDLLTYQDLEVLKSRKAGGQAPPPRTQPPNNKRYLIMTYAAEFDRVHYPLPLLFEENPDPQHLKRIISQLRSEVEGLQVEAGNRRGGEVSAELRRLREENAALQRQLKQMERSGSGVGAGAESSEARELARELRTVRKERDLLQARVEAAEAELERERGLHRRELRRRAKEQQELVDELGRCKEQIRELKMRIRQLTEDLEARDRRMNSTDRIRSVYARGSNDGSTSGVAPRRPSSGGRGPSSNYMAPTRGADSRSNSRGRGTSSAERSRPNSAPIGGPRPRFDPTEYVRQRKERESAAVGGRRSNAPTPPRSAGTSRASSVVGSRPASAERLPPIRTASPTNSRPSSTERYRPGSGGPPGRTSAGGSRGAADRAGARGPDPYAPRSRGASPSGRATAWGEPGASGGGAGGWSKFPGGGGGGVGGSGQRISSNSPRSMSPARALAEVKQKLSTFVAGRGGSLQGDDASSAHGEHMSQSSKSQVFEDATAEIADIDSRLHALQDFLRMAKTSSTSTSTTQA” here?
**A.** Its value is “not soluble”.

**Q.** With “MNIQKMYTAVDVHVNGEAFRVMKDVPCKYYYSLEQLNEQFSGELAEEMKLLLNEPRGFIGLNGCIVVPSIHNEVDAAVLFFNHEGSIPLHYGGIVAVITMLLESGYLKKRESNQYKIETLSGIFLVHAYVENDEVISVSFESKLCYLIEENLQVGNVSYSLIQADKVYAVVEKGAYSPEIRVENISELKRWGEATLQAIQKQSLIKRLILVDPSQKEKNHIKSITFHEDNFIVRSPGFVSTIVSYVHALFKNDYMADKPFKNESIFNSFITVEKVKKEELGYIFRFESRGFITGMQTFLLDPTDPFPAGFLLKLEHHHHHH” as the sequence, how does the “soluble on expression in E. coli” value read?
**A.** Its value is “not soluble”.

**Q.** For “MGSDKIHHHHHHMSQSIPEPHWHQTPQEFLASWSTSRGNLRRFFEEHALPPIDARTQREAGEAAAELAASELFGIKLDEYTSGLDSVSGSFEAAGAQHVTTANPEIPQDIGAAAFFDIDNTLIQGSSLVVFAMGLAKKKYFKLNEILPVAWKQIKFRVTGNENAHDVAEGRQQALEFIKGRRVDELVALCEEIVDNNMSEKLWPGTKQLADQHIADGQQVWLVSATPVQLAQALAKRLGFTGALGTVAEVKDGVFTGRLVGDILHGPGKLHAVAALATIERLDLSRCTAYSDSINDVPMLSMVGTAVAINPDRPLAKVAKQHGWAVRDYRSLRKAIRTFGIPALVTAAFSFGGWKAWRR”, which “soluble on expression in E. coli” value is on record?
**A.** The value was “not soluble”.

Source: the DeepSol protein solubility set
